# Test results as given in patent publication US20200325187A1 (Genentech, published 2020).
# T1: VEGF-C (human, UniProt P49767 103-227, limits assumed)
# T1 sequence (looked up): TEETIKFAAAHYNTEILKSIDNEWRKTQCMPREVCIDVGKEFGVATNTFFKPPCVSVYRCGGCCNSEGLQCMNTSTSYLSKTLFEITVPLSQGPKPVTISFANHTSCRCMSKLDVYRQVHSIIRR
# What was measured:
# [1] = target: hVEGF-A (human, UniProt P15692-4 27-191, limits assumed); assay: cell-based or functional assay
# [2] = target: T1, VEGF-C; assay: competition ELISA: VEGF-C coated, constant Flt-4 receptor, peptide titrated
binder,measurement,setting,value
GCNIMLPFWGCGRDFECLAGCVCQYYQSCG (designed binder) [VEGF_CKP9.54.90],Cellular IC50,[1],1.35 nM
same,FOLD [..] [..] TO VARIANT 9.54.90,[1],1 fold
same,binding result,[2],no binding (tested: 5 µM)
